How the values were obtained:
Test in all cases: Kinase Profiling Assay
Format in all cases: biochemical
Conditions in all cases: 100 μM
CDK2/cyclinA(h) = CDK2/cyclinA(h) (Homo sapiens, UniProt P24941)
IKKβ(h) = target: T1, IKKβ(h) (Homo sapiens, UniProt O14920)
T1 sequence (O14920 1-756): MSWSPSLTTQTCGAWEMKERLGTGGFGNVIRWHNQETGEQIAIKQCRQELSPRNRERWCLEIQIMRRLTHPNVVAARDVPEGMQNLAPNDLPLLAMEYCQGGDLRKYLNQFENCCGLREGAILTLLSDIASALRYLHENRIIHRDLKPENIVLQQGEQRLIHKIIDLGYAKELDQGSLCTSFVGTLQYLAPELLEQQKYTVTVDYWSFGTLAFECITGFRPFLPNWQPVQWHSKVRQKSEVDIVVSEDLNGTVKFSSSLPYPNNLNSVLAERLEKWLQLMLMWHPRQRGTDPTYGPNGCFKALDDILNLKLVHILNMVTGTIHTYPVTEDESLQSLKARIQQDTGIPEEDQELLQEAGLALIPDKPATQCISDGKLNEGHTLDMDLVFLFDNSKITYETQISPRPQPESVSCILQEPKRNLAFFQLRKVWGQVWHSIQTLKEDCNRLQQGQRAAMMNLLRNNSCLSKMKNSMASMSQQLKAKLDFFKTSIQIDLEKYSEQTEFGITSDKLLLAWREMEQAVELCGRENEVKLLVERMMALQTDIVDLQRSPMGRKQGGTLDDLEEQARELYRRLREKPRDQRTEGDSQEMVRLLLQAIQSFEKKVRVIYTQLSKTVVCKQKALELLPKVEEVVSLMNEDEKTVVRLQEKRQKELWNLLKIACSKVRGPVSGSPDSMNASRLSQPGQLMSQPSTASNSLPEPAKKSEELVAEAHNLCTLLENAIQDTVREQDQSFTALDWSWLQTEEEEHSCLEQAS

Ab1(Y253F)(h) = Ab1(Y253F)(h) (Homo sapiens, UniProt P00519, Y253F)
Plk1(h) = Plk1(h) (Homo sapiens, UniProt P53350)
Chain of Plk1(h) (P53350 whole entry): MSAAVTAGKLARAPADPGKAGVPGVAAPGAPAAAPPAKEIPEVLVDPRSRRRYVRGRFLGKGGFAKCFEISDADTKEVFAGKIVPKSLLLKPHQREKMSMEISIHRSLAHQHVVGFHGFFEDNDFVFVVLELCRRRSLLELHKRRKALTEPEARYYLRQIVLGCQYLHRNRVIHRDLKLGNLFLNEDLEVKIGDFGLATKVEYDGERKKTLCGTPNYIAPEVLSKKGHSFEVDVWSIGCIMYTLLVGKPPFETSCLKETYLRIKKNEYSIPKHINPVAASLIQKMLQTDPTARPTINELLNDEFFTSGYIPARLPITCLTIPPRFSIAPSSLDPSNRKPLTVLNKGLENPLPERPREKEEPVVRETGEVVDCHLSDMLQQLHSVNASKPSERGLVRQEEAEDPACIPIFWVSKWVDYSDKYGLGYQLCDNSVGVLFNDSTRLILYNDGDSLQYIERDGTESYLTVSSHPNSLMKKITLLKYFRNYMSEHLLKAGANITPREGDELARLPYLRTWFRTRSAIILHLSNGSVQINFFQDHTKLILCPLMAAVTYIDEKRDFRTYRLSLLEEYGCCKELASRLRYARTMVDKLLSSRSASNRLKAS

## HRRIKAWLKKIKALARQLGVAA (Mammalian) [MMI-0500]
CDK2/cyclinA(h)
  % activity: 87%
IKKβ(h)
  % activity: 71%
Ab1(Y253F)(h)
  % activity: 29%

## YARAAARQARAKALNRQLGVA (Mammalian) [MMI-0200]
Plk1(h)
  % activity: 128%

— US10087225B2, “Formulation of MK2 inhibitor peptides” (MOERAE MATRIX, INC., priority 2015, dated 2018)
